Test results taken from patent publication US11897928B2, “Conjugates for delivering an anti-cancer agent to nerve cells, methods of use and methods of making thereof” (Manzanita Pharmaceuticals, Inc., priority 2018, dated 2024).

Assays:
[1] = Intracisternal delivery of 800-rhBDNF in naïve rats (Spectralis IRAF/IR imaging, NIR microscopy and HE histopathology); format: in vivo
Procedure: A Dyomics Near InfraRed (NIR) dye 800 was conjugated to rhBDNF (800-rhBDNF) as set forth above. […] Three single doses of 800-rhBDNF were injected midline intracisternally in naïve rats (n=4; n=3 800-rhBDNF, n=1 control, unmodified dye 800 carboxylic acid form). Three test doses of 800-rhBDNF were selected: lowest (5 μL for syringe, at 0.20 concentration=1 μg study article), mid-, and highest (30 μL; upper volume constraint is 50 μL). Images at three timepoints were collected, just prior to treatment, 15 min, and 6 h using two imaging modalities in both eyes (left eye, oculus sinister, OS; right eye, oculus dexter, OD). Imaging and histopathology methods were used to detect 800-rhBDNF in the optic chiasm or optic nerve head.
Two seetings were selected on the Heidelberg Spectralis®. Infrared autofluorescence IRAF; or ICG, to detect indocyanine green, an NIR dye uses a diode laser with a wavelength of 790 nm in the NIR spectrum. A barrier filter at 830 nm separates excitation and fluorescence light and thus, IRAF/ICG detects near IR fluorescence in 800-rhBDNF. […] After dissection, tissues were cryostatted to preserve NIR 800. Two directly contiguous sets of slides were produced from two sections of optic nerve, optic chiasm from brain tissue, and optic nerve head from eyes. HE stain.
Hematoxylin and eosin (HE) stain was applied to one slide set to reveal nerve tissue. NIR microscopy. Using an Olympus IX73 inverted 2-deck microscope with motorized filter cube turret; objective turret; Proscan XYZ stage; a 75 W Xenon burner; and DP80 Dual CCD 12.7 MP camera, NIR images are acquired in two channels at 4× in the FITC channel (detects auto-fluorescence) and ICG channel. The morphology of HE stained slides to those with FITC+NIR images was compared to confirm that NIR 800 had localized to in nerve tissue.

TrkB receptor = test: Bioassay in RGC cultures for TrkB receptor binding; format: cell-based

B1: 800-rhBDNF: Dyomics Near InfraRed (NIR) dye 800 conjugated to rhBDNF (conjugate, UniProt P23560 19-247, looked up)
Neurotrophic factor BDNF …: APMKEANIRGQGGLAYPGVRTHGTLESVNGPKAGSRGLTSLADTFEHVIEELLDEDQKVRPNEENNKDADLYTSRVMLSSQVPLEPPLLFLLEEYKNYLDAANMSMRVRRHSDPARRGELSVCDSISEWVTAADKKTAVDMSGGTVTVLEKVPVSKGQLKQYFYETKCNPMGYTKEGCRGIDKRHWNSQCRTTQSYVRALTMDSKKRIGWRFIRIDTSCVCTLTIKRGR
modifications: Dyomics 800 NIR dye
notes: Dyomics Near InfraRed (NIR) dye 800 conjugated to rhBDNF
[1]; intracisternal injection, live imaging at baseline, 15 min and 6 h
  localized irritation in the retinas: No localized irritation in the retinas was observed
[1]; midline intracisternal injection, imaging in OS and OD
  distribution of midline injection (both eyes): distributed bilaterally
[1]; preliminary studies, given intracisternally
  transport of 800 dye from the site of injection: transports 800 dye away from the site of injection, via the optic chiasm, to the optic nerve head
[1]; single midline intracisternal injection, histopathology after euthanasia at 6 h, optic chiasm and optic nerve head
  localization of NIR 800 dye in nerve tissue (morphology of NIR microscopy compared to HE stain): localizes the 800 dye and moves the 800 dye away from the injection site via optic chiasm to optic nerve head
TrkB receptor
  TrkB receptor binding following synthesis: TrkB receptor binding remains intact
